Laboratory results published in article PMC4993455.

Assays:
[1] = target: recombinant human methionine adenosyltransferase α2 (MATα2) (human) (UniProt P31153)
[2] = target: recombinant methionine adenosyltransferase α1 (MATα1) (rat) (UniProt P13444)
Sequence of recombinant methionine adenosyltransferase α1 (MATα1) (rat) (P13444 whole entry): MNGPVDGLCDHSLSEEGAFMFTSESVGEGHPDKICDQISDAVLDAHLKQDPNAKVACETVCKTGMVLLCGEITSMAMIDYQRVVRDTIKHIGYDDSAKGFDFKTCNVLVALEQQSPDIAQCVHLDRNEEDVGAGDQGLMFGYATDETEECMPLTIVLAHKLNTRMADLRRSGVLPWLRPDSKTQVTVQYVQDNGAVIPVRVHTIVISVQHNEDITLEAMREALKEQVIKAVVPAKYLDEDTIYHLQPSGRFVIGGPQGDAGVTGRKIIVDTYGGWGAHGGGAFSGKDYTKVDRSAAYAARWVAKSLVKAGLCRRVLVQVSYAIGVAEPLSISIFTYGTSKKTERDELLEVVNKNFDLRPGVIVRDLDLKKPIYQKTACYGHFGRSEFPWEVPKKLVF

Sequence of recombinant PDRG1 (tag excised) (Q642A0 whole entry): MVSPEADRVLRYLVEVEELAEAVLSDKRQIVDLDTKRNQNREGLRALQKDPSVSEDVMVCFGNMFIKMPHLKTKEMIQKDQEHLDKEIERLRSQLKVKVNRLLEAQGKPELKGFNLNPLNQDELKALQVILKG
Sequence of recombinant human methionine adenosyltransferase α2 (MATα2) (human) (P31153 whole entry): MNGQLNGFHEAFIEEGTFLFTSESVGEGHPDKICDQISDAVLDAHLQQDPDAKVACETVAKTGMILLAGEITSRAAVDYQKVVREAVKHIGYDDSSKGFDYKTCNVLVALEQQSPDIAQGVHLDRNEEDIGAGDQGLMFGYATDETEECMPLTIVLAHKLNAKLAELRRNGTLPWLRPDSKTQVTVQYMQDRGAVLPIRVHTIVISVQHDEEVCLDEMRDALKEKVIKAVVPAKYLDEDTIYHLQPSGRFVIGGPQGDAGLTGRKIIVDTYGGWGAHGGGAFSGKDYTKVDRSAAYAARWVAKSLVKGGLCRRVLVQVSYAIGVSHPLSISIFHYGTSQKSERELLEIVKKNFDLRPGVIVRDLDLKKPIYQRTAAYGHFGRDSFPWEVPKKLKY

- IC50 of PDRG1 on S-adenosylmethionine synthesis by purified recombinant MATα2 homo-oligomers (0.7 μM) [1]: 3.79 µM
- reduction in AdoMet synthesis by MATα2 homo-oligomers (0.7 μM) with increasing concentrations of PDRG1 [1]: < 50%
- IC50 of PDRG1 (0–5.6 μM) on S-adenosylmethionine synthesis by purified recombinant MATα1 homo-oligomers (0.7 μM) [2]: 3.34 µM
- reduction in AdoMet synthesis by MATα1 homo-oligomers (0.7 μM) with increasing concentrations of PDRG1 (0–5.6 μM) [2]: < 50%
Substance: recombinant PDRG1 (tag excised) (from UniProt Q642A0 1-133) (natural protein)
